From patent US20250346660A1 (PARAGON THERAPEUTICS, published 2025)
Where a chain is given by its changes, count along the chain named.

B1: Reference Antibody 1 (antibody, human IgG1, kappa, L234A L235A, V domains shown)
VH: QVQLVQSGAEVKKPGSSVKVSCKASGYTFTDQTIHWMRQAPGQGLEWIGYIYPRDDSPKYNENFKGKVTITADKSTSTAYMELSSLRSEDTAVYYCAIPDRSGYAWFIYWGQGTLVTVSS
VL: DIQMTQSPSSLSASVGDRVTITCKASRDVAIAVAWYQQKPGKVPKLLIYWASTRHTGVPSRFSGSGSRTDFTLTISSLQPEDVADYFCHQYSSYPFTFGSGTKLEIKR
notes: also called anti-human IL-23p19 antibody; parental antibody
B2: IL-23 antibody clone 107 (antibody, human IgG1, kappa, L234A L235A, V domains shown)
VH: B1 VH with D31A, S57T, E62P, I108D
VL: B1 VL
B3: IL-23 antibody clone 202 (antibody, human IgG1, kappa, L234A L235A, V domains shown)
VH: EVQLLESGGGLVQPGGSLRLSCAASGYTFTDQTIHWVRQAPGKGLEWIGYIYPRDDSPKYNENFKGRATLSADKSKNTAYLQMNSLRAEDTAVYYCAIPDRSGYAWFIYWGQGTTVTVSS
VL: EIVMTQSPATLSVSPGERATLSCKASRDVAIAVAWYQQKPGQAPRLLLYWASTRHTGIPARFSGSGSRTEFTLTISSLQSEDFAVYYCHQYSSYPFTFGGGTKVEIKR
notes: Full antibody format
B4: IL-23 antibody clone 203 (antibody, human IgG1, kappa, L234A L235A, V domains shown)
VH: B3 VH
VL: B3 VL with Y49F
notes: Full antibody format

What follows are binders tested against T1, Recombinant Human IL-23 (human, UniProt Q9NPF7 20-189; P29460 23-328) (assay: SPR (Biacore 8K), mAb captured on anti-human IgG, human IL-23 as analyte, 25 C, 1:1 model; below the limit of detection).
T1 construct: Recombinant soluble cytokine; also called hIL-23
T1 sequence (looked up) 1: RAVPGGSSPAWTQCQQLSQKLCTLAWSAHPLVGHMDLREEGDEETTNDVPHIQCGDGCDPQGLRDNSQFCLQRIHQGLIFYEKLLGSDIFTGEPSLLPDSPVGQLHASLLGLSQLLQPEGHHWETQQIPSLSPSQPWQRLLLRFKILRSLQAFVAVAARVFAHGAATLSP
T1 sequence (looked up) 2: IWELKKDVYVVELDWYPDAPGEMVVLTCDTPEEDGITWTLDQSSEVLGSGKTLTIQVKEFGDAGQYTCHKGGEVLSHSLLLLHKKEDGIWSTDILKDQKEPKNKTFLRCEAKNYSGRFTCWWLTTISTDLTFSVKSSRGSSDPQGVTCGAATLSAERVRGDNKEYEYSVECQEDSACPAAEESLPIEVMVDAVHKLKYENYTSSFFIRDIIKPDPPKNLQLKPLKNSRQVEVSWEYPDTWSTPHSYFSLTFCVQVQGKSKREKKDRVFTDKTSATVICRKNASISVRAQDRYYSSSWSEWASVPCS
Experimental: (§1) Reference Antibody 1 was used as a comparator. […] Anti-IL23 mAb constructs (diluted to 2 μg/mL) were captured onto flow cell 2 (active) for 60 sec at a flow rate of 10 μL/min. Recombinant Human IL-23 was prepared at concentrations of 0, 1.23, 3.7, 11.11, 33.33, 100 nM and injected over flow cell 1 (reference) and flow cell 2 (active) for 180 sec at a flow rate of 50 μL/min. Samples were injected in a multi-cycle manner over freshly captured mAb, by regenerating the capture surfaces with injection of 10 mM glycine, pH 1.5 for 30 sec at a flow rate of 30 μL/min. A 1:1 kinetic binding model was utilized to determine the apparent association (kₐ) and dissociation […] rate constants. Their ratio provides the apparent equilibrium dissociation constant or affinity constant ([…]).

B1 was tested. Which koff did it give?
Its koff is under 1e-06 s⁻¹.

For B2, which koff is on record?
Its koff is under 1e-06 s⁻¹.

How did the koff turn out when B3 was run?
Its koff is under 1e-06 s⁻¹.

Which koff does the source give for B4 here?
The koff was under 1e-06 s⁻¹.

These binders were tested against T1, Recombinant Human IL-23 (assay: cell-based or functional assay).

With B1 as the binder, how does the “Relative IC50, inhibition of IL-23-induced release of IL-17 from human PBMCs” value (shortened to “Relative IC50, inhibition … from human PBMCs”) read?
Its value is 1 relative to Reference Antibody 1.

With B2 as the binder, how does the “Relative IC50, inhibition … from human PBMCs” value read?
Its value is 0.67 relative to Reference Antibody 1.

B3 was tested. Which “Relative IC50, inhibition … from human PBMCs” value did it give?
Its value is 0.79 relative to Reference Antibody 1.

For B4, which “Relative IC50, inhibition … from human PBMCs” value is on record?
The value was 0.78 relative to Reference Antibody 1.

These binders were tested against T1, Recombinant Human IL-23 (assay: SPR (Biacore 8K), mAb captured on anti-human IgG, human IL-23 as analyte, 25 C, 1:1 model).
Experimental: as §1

With B1 as the binder, how does the kon read?
Its kon is 167000 M⁻¹ s⁻¹.

B2 was tested. Which kon did it give?
Its kon is 187000 M⁻¹ s⁻¹.

How did the kon turn out when B3 was run?
Its kon is 210000 M⁻¹ s⁻¹.

Which kon does the source give for B4 here?
The kon was 271000 M⁻¹ s⁻¹.

Target: T1, Recombinant Human IL-23
Assay: cell-based or functional assay
Remark: another data set of the same source

For B1, which “Relative IC50, inhibition of IL-23-induced phosphorylation of STAT3 in DB cells (pSTAT3 sandwich ELISA)” value is on record?
The value was 1 relative to Reference Antibody 1.

B2 was tested. Which “Relative IC50, inhibition of IL-23-induced phosphorylation of STAT3 in DB cells (pSTAT3 sandwich ELISA)” value did it give?
The value was 0.51 relative to Reference Antibody 1.

These binders were tested against T1, Recombinant Human IL-23 (assay: SPR (Biacore 8K), mAb captured on goat anti-human IgG CM5 chip, human IL-23 as analyte, 25 C, 1:1 model).
Experimental: as §1

With B4 as the binder, how does the Kd read?
Its Kd is under 6 pM.

Target: T1, Recombinant Human IL-23
Assay: cell-based or functional assay
Remark: another data set of the same source

For B1, which “Relative IC50, inhibition of IL-23-induced activation of STAT3 (luciferase reporter, HEK 293F IL-23R+/IL-12Rb1+ cells)” value is on record?
The value was 1 relative to Reference Antibody 1.

How did the “Relative IC50, inhibition of IL-23-induced activation of STAT3 (luciferase reporter, HEK 293F IL-23R+/IL-12Rb1+ cells)” value turn out when B2 was run?
The value was 0.57 relative to Reference Antibody 1.

For B3, which “Relative IC50, inhibition of IL-23-induced activation of STAT3 (luciferase reporter, HEK 293F IL-23R+/IL-12Rb1+ cells)” value is on record?
Its value is 0.76 relative to Reference Antibody 1.

B4 was tested. Which “Relative IC50, inhibition of IL-23-induced activation of STAT3 (luciferase reporter, HEK 293F IL-23R+/IL-12Rb1+ cells)” value did it give?
The value was 0.66 relative to Reference Antibody 1.
